Sequences and labels used below:
B1: SlACS4 wild (dsDNA)
DNA 1: GTTTTAACTTTTTAAATATTTTGACGTAAGTTTTTTGTTTTCCCCCAAAA
DNA 2: TTTTGGGGGAAAACAAAAAACTTACGTCAAAATATTTAAAAAGTTAAAAC
B2: SlPG2a wild (dsDNA)
DNA 1: TATTTTAAAAAATACACTTAAAAGCGTGACTAAATATAAATTGTTGCTCA
DNA 2: TGAGCAACAATTTATATTTAGTCACGCTTTTAAGTGTATTTTTTAAAATA
B3: SlPL wild (dsDNA)
DNA 1: TATCAATAACAGATAGTAATTTTACGTAATGATATTGAACGATGTATATA
DNA 2: TATATACATCGTTCAATATCATTACGTAAAATTACTATCTGTTATTGATA
B4: SlEXP1 wild (dsDNA)
DNA 1: CTGAAATTTTAGCTAATTTTAACACGTATTCAATTTTGTATGATTGAATG
DNA 2: CATTCAATCATACAAAATTGAATACGTGTTAAAATTAGCTAAAATTTCAG
B5: SlCEL2 wild (dsDNA)
DNA 1: ATCCAATAGCATCCCACCACGTGTCGTAACAATATTGGTTTAACCCCAGG
DNA 2: CCTGGGGTTAAACCAATATTGTTACGACACGTGGTGGGATGCTATTGGAT
B6: SlACS2 wild (dsDNA)
DNA 1: AATAAATTCTTTTTGACAGGGTGGCGTAAAAATAATTTTATTTTAAAATA
DNA 2: TATTTTAAAATAAAATTATTTTTACGCCACCCTGTCAAAAAGAATTTATT
B7: SlSGR1 wild (dsDNA)
DNA 1: TAAGCAGTTATGCGTGTGCTGAAGTTGTTATTTCAAACGTGAAAAGGAAA
DNA 2: TTTCCTTTTCACGTTTGAAATAACAACTTCAGCACACGCATAACTGCTTA
B8: SlGgpps2 wild (dsDNA)
DNA 1: TACGTTTAGGATAGGACTTCATTACGTGTCAAGGACAAAAATAAACCTAT
DNA 2: ATAGGTTTATTTTTGTCCTTGACACGTAATGAAGTCCTATCCTAAACGTA

In the data set the target is NOR-like1 (Solanum lycopersicum (cv. AC), UniProt K4CH25 1-329). In words: EMSA; EMSA kit (Thermo Fisher), manufacturer's instructions; buffer, salt, pH and temperature not stated. The settings on record: protein: recombinant; tags: GST; chain copies: 2; label: biotin; blunt.
Chain of NOR-like1 (K4CH25 entry or part of it): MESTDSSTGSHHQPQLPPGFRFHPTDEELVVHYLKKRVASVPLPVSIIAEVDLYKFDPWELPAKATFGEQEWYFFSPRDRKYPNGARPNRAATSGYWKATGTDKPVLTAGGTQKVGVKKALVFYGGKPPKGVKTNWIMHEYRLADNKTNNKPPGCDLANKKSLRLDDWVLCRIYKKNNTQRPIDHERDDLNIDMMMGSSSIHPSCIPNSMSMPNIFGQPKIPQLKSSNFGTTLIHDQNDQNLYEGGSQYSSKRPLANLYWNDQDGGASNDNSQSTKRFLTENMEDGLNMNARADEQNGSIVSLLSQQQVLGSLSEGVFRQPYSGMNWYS
Regarding B1, the binding result is on record as “binds”.
Turning to B2, the binding result was “binds”.
Turning to B3, the binding result was “binds”.
In the case of B4, the binding result is “binds”.
In the case of B5, the binding result is listed as “binds”.
Regarding B6, the binding result is listed as “binds”.
With B7, the binding result is recorded as “binds”.
Take B8: the binding result is “binds”.
